In this assay the target is human SHP2 catalytic domain (human) (UniProt Q06124).

The substance “isolated SHP2 N-SH2 domain (domain or fragment)” came in with an IC50 of inhibition of SHP2 CD PTP activity by isolated N-SH2 (Figure S2) of 15 µM.
